Biological target: the molecule itself
Experiment: SEC; Biogel P-100 column; CLA incubated 5 h at room temperature at pH 7, 5 or 4 (10 mM Na-phosphate or Na-acetate, 150 mM NaCl); mass from a standard curve run at pH 7

B1: Curcuma longa rhizome lectin (natural protein)
chain: KNILLSGETLETGKFLTEGEFTFLMQSDCNLVLYDLNRPIWSSGTIHKGSGCILKMQNDGNLVIYNVTNNAIWASNTGGQQGNYILILQRDRNVVIYSQPIFNTDTAVSKLNSSNLGETGNGGNIAQPENKIAIGASNGHNANILPSGETLPTGKLTLPSEVATETGK
modifications: glycosylated (glycoprotein with about 5.2% covalently bound sugar); sites not stated
stoichiometry N: 2
